Assay [1] concerns GLUT4. Description: GLUT4 translocation to the plasma membrane in primary adipocytes (immunostaining, fractionation). The assay is classed as cell-based, mouse. The settings on record: 100 nM. The procedure: Biochemical analyses. Plasma insulin levels were measured using the Ultra-Sensitive Mouse Insulin ELISA kit (Crystal Chem Inc #90080). Plasma triglycerides were measured with Infinity triglyceride measurement kit (Thermo #TR22421) and tissue triglycerides were measured with a Triglyceride Colorimetric Assay Kit (Cayman #10010303). Lipolysis was measured in day 5 differentiated adipocytes after 4 hours of protein treatment using a glycerol release assay according to the protocol provided by the manufacturer (Abcam #ab133130). Plasma membrane protein extractions were performed according to the manufacturer's protocol (Abcam #ab65400).
Immunocytochemistry. Primary mouse preadipocytes were seeded onto collagen-coated 22 mm×22 mm coverslips and differentiated using the method above. On day 8, differentiated adipocytes were washed with PBS and starved in 0.5% BSA in KRH buffer (50 mM HEPES, 136 mM NaCl, 1.25 mM MgSO4, 1.25 mM CaCl2, 4.7 mM KCl, pH 7.4) for 3.5 h. Cells were treated with insulin or ISM1 for 30 min, followed by three washes with cold PBS. Cells were fixed with 4% PFA in PBS for 15 min at room temperature. After blocking with 2% BSA, 5% goat serum, 0.2% Triton-X in PBS for 1 hr, cells were incubated with diluted primary antibody at 4° C. overnight. The next day, cells were washed and incubated with secondary antibody on ice for 1 hr. Cells were imaged using confocal microscope (Leica TCS SP8). Hoechst (#33342, thermo fisher) was used as counterstain.

Assay [2] has as its system srebp1c. Description: Lipogenic gene and SREBP-1c protein expression in primary adipocytes. In kind it is cell-based, mouse. The procedure: Gene expression analysis. Total RNA from cultured cells or tissues was isolated using TRIzol (Thermo Fischer Scientific) and Rneasy mini kits (QIAGEN). RNA was reverse transcribed using the ABI high capacity cDNA synthesis kit. For qRT-PCR analysis, cDNA, primers and SYBR-green fluorescent dye (ABI) were used. Relative mRNA expression was determined by normalization with Cyclophilin levels using the ΔΔCt method.
Western blots and molecular analyses. For western blotting, homogenized tissues or whole-cell lysates, samples were lysed in RIPA buffer containing protease inhibitor cocktail (Roche) and phosphatase inhibitor cocktail (Roche). Cell lysates were centrifuged at 14,000×g for 15 min and supernatants were prepared in 4×LDS Sample Buffer (Invitrogen) and separated by SDS-PAGE and transferred to Immobilon 0.45 μm membranes (Millipore). For Western blotting of plasma samples, 1 μl of plasma was prepared in 2× sample buffer (Invitrogen) with reducing agent, boiled, and analyzed using Western blot against indicated antibody. Protein kinase array (R&D systems ARY003B) was performed according to the manufacturers' description. All antibodies used in this paper are described in STAR methods.

The values that follow come from patent US20240342244A1, “Isthmin Protein Therapeutics for the Treatment of Non-Alcoholic Fatty Liver Disease” (The Board of Trustees of the Leland Stanford Junior …, priority 2021, published 2024).

B1: ISM1: recombinant mouse ISM1 protein with a C-terminal myc-his tag generated in mammalian HEK 293 Expi cells (protein, UniProt A2ATD1 30-454, looked up)
Isthmin-1: SDRQDAAAGNNNLNLESDSTSETSFPLSKEAPEEHQVVHQPFPRQRFPPETGHPSLQRDGPRSFLLDLPNFPDLSKADINGQNPNIQVTIEVVDGPDSEAEKDQHPENKPSWSLPAPDWRAWWQRSLSLARTNSGDQDDKYDSTSDDSNFLSVPRGWDRPAPGHRTFETKEQPEYDSTDGEGDWSLWSVCSVTCGNGNQKRTRSCGYACIATESRTCDRPNCPGIEDTFRTAATEVSLLAGSEEFNATKLFEVDMDSCERWMSCKSEFLKKYMHKVINDLPSCPCSYPTEVAYSTADIFDRIKRKDFRWKDASGPKEKLEIYKPTARYCIRSMLSLESTTLAAQHCCYGDNMQLITRGKGAGTPNLISTEFSAELHYKVDVLPWIICKGDWSRYNEARPPNNGQKCTESPSDEDYIKQFQEAREY
modifications: C-terminal myc-His tag
notes: recombinant mouse ISM1 protein with a C-terminal myc-his tag generated in mammalian HEK 293 Expi cells
As to B1, the “GLUT4 in plasma membrane fraction (biochemical fractionation)” value in assay [1] (4 h) is “translocation of GLUT4 to the plasma membrane”. Also, the “GLUT4 at cell surface (immunostaining, confocal microscopy)” value in assay [1] (compared with control cells) is listed as “higher levels of GLUT4 at cell surface”. In assay [2] (insulin-stimulated conditions), the “cleaved SREBP-1c protein levels” value is “potently reduces the cleaved SREBP-1c protein levels”; the “srebp1c, acc, fas and ChREBPβ gene expression” value was “suppressing srebp1c and the lipogenesis target genes acc, fas, and ChREBPβ”. The “srebp1c expression under basal conditions” value in assay [2] (primary adipocytes) is listed as “no induction”.
